EP2138508A1

Target: Met receptor on MK keratinocytes (mouse) (UniProt P16056)
Assay: cell-based or functional assay

Substance: InIB full length (from UniProt P0DQD2 31-630) (ligand)
- stimulation of DNA synthesis in MK keratinocytes, lowest active concentration: 100 pM
